Measurements published in the Immune Epitope Database (IEDB).

Tests used:
[1] = molecular target: HLA-B*15:01; assay: IEDB peptide-MHC binding, purified MHC/competitive/radioactivity; filed as Kd, often an IC50 or EC50 that approximates it; ≥ and ≤ were set here for values at or beyond the usual limits of such assays
[2] = molecular target: HLA-B*07:02; assay: as above
[3] = molecular target: HLA-B*35:01; assay: as above
[4] = molecular target: HLA-B*51:01; assay: as above
[5] = molecular target: HLA-B*53:01; assay: as above
[6] = molecular target: HLA-B*54:01; assay: as above
[7] = molecular target: HLA-A*24:03; assay: IEDB peptide-MHC binding, purified MHC/direct/fluorescence; filed as Kd, often an IC50 or EC50 that approximates it; ≥ and ≤ were set here for values at or beyond the usual limits of such assays; settings: source organism: West Nile virus
[8] = molecular target: HLA-A*02:06; assay: IEDB peptide-MHC binding, purified MHC/competitive/radioactivity; filed as Kd, often an IC50 or EC50 that approximates it; ≥ and ≤ were set here for values at or beyond the usual limits of such assays; settings: source organism: Homo sapiens
[9] = molecular target: HLA-A*68:02; assay: as above
[10] = molecular target: HLA-A*23:01; assay: as above; settings: source organism: Dengue virus 2 Jamaica/1409/1983
[11] = molecular target: HLA-A*24:02; assay: as above; settings: source organism: Dengue virus 2 Jamaica/1409/1983
[12] = molecular target: HLA-A*03:01; assay: as above; settings: source organism: Vaccinia virus WR
[13] = molecular target: HLA-A*11:01; assay: as above; settings: source organism: Vaccinia virus WR
[14] = molecular target: HLA-A*31:01; assay: as above; settings: source organism: Vaccinia virus WR
[15] = molecular target: HLA-A*33:01; assay: as above; settings: source organism: Vaccinia virus WR
[16] = molecular target: HLA-A*68:01; assay: as above; settings: source organism: Vaccinia virus WR
[17] = molecular target: HLA-A*26:01; assay: as above; settings: source organism: Dengue virus 4 Philippines/H241/1956
[18] = molecular target: HLA-B*51:01; assay: IEDB peptide-MHC binding, purified MHC/competitive/fluorescence; filed as Kd, often an IC50 or EC50 that approximates it; ≥ and ≤ were set here for values at or beyond the usual limits of such assays; settings: source organism: Yersinia pestis Nepal516
[19] = source organism: Vaccinia virus WR
[20] = source organism: Dengue virus 2 Jamaica/1409/1983
[21] = source organism: SARS coronavirus Tor2

**Q.** Which Kd [1, 19] does the source give for LSRVFFCVY here?
**A.** Its Kd is 2.9 nM.

**Q.** Which Kd [2, 19] does the source give for RPEMQEFEY here?
**A.** Its Kd is ≥ 68800 nM.

**Q.** And the Kd [3, 19]?
**A.** Its Kd is 8.09 nM.

**Q.** And the Kd [4, 19]?
**A.** Its Kd is ≥ 77500 nM.

**Q.** And the Kd [5, 19]?
**A.** The Kd was 16.7 nM.

**Q.** And the Kd [6, 19]?
**A.** The Kd was ≥ 78100 nM.

**Q.** Which Kd [7] does the source give for VYRIMTRGL here?
**A.** The Kd was 580 nM.

**Q.** Which Kd [8] does the source give for QLKGQGKSRL here?
**A.** The Kd was ≥ 42200 nM.

**Q.** And the Kd ([9]; source organism: Homo sapiens)?
**A.** The Kd was ≥ 60000 nM.

**Q.** With IPGDILSII as the sequence, how does the Kd [2, 19] read?
**A.** The Kd was 43.5 nM.

**Q.** What about the Kd [3, 19] of the same sequence?
**A.** The Kd was 266 nM.

**Q.** And the Kd [4, 19]?
**A.** The Kd was 0.459 nM.

**Q.** And the Kd [5, 19]?
**A.** Its Kd is 27.5 nM.

**Q.** And the Kd [6, 19]?
**A.** The Kd was 370 nM.

**Q.** Which results are given for EPVVKDKIKL?
**A.** Kd [2, 19]: ≥ 31500 nM; Kd [3, 19]: ≥ 69900 nM; Kd [4, 19]: ≥ 69600 nM; Kd [5, 19]: ≥ 54200 nM; Kd [6, 19]: ≥ 42700 nM

**Q.** How did the Kd [10] turn out when FMALVAFLRF was run?
**A.** The Kd was 2510 nM.

**Q.** And the Kd [11]?
**A.** Its Kd is ≥ 27900 nM.

**Q.** And the Kd [1, 20]?
**A.** Its Kd is 229 nM.

**Q.** And the Kd [3, 20]?
**A.** The Kd was 69.7 nM.

**Q.** What about the Kd [5, 20] of the same sequence?
**A.** The Kd was 1000 nM.

**Q.** Which Kd [2, 21] does the source give for SPKFTTSLSL here?
**A.** The Kd was 8.39 nM.

**Q.** What about the Kd [3, 21] of the same sequence?
**A.** Its Kd is 7920 nM.

**Q.** And the Kd [4, 21]?
**A.** Its Kd is 1090 nM.

**Q.** And the Kd [5, 21]?
**A.** Its Kd is 1300 nM.

**Q.** And the Kd [6, 21]?
**A.** The Kd was ≥ 28800 nM.

**Q.** Which results are given for LLHCVTESY?
**A.** Kd [12]: 3930 nM; Kd [13]: 8230 nM; Kd [14]: 12500 nM; Kd [15]: ≥ 26300 nM; Kd [16]: 12400 nM; Kd [1, 19]: 1.04 nM

**Q.** ESPARLASAI was tested. Which Kd [17] did it give?
**A.** Its Kd is 4480 nM.

**Q.** And the Kd ([9]; source organism: Dengue virus 4 Philippines/H241/1956)?
**A.** Its Kd is 501 nM.

**Q.** Which Kd [18] does the source give for LPWLIFIQI here?
**A.** The Kd was 1690 nM.

**Q.** Which Kd ([9]; source organism: Dengue virus 1 Brazil/97-11/1997) does the source give for SSALLWMASV here?
**A.** Its Kd is 46.7 nM.

**Q.** What does the source list for DPQNAAVNV?
**A.** Kd [2, 19]: ≥ 77500 nM; Kd [3, 19]: ≥ 77400 nM; Kd [4, 19]: 1250 nM; Kd [5, 19]: ≥ 36800 nM; Kd [6, 19]: ≥ 32200 nM

**Q.** TSNHGVTATI was tested. Which Kd ([9]; source organism: Dengue virus 4 Thailand/0348/1991) did it give?
**A.** Its Kd is 129 nM.
